Source: patent US20250326836A1 (SHIONOGI, published 2025)

biological target: T1, human cannabinoid type 1 (CB1) receptor (human, UniProt P21554 1-472); assay: cell-based or functional assay
T1 sequence (P21554 whole entry): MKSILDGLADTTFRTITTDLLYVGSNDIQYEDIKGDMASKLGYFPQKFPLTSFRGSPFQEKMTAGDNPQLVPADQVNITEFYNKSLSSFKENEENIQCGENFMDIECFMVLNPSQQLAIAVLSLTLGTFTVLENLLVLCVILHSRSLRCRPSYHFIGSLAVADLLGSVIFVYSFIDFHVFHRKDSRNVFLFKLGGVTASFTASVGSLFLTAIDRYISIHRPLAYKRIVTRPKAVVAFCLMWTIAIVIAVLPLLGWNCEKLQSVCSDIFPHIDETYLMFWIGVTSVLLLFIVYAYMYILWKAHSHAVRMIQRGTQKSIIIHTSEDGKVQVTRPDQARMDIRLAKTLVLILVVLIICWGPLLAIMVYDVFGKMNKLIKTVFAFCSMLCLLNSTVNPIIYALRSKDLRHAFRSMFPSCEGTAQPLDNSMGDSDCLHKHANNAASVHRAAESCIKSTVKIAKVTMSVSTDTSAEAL

Row | Binder | Ca^2+ influx assay IC50 [nM] | cAMP assay IC50 [nM]
1 | mIML1-2 (antibody, V domains shown) VH: QVQLQQSGAELVKPGASVKIACKASGYEFNYYWMNWVKQRPGKGLEWIGQIYPGDGDNKYNGKFKGKATLTADKSSSTVYMQLNSLTSEDSAVYFCARTGSGRFAYWGQGTLVTVSA VL: QIVLTQSPAIMSASPGEKVTMTCRASSSVSSSYLHWYQQKSGASPKLWIYSTSNLASGVPARFSGSGSGTSYSLTITSVEAEDVATYYCQQYSGFPLTFGSGTKLEIKR | 1.77 | 5.9
2 | m2F8 (antibody, V domains shown) VH: QVQLQQSGAELVKPGASVKISCKASGYEFSYYWMNWVKQRPGKGLEWIGQIYPGDGDTNYNGKFKGKATLAAGKSSSTAYMQLSSLTSEDSAVYFCARSHGNYMIYWGQGTSVTVSS VL: QIVLTQSPAIMSASLGERITLTCIASSSVSSSYLHWYQQKPGSSPKLWIYSTSNLASGVPTRFSGSGSGTSFSLTISTMEAEDAATYYCHQYHRSPRTFGGGTKLEIKR | 0.9 | 4.9
3 | m24C4 (antibody, V domains shown) VH: QVQLQQSGAELVKPGASVKISCKASGYEFSYYWMNWVKQRPGKGLEWIGQIYPGDGDTNYNGKFKGKATLTADKSSSTAYMQLSSLTSEDSAVYFCARSHGNYMHYWGQGTSVTVSS VL: QIVLTQSPAIMSASLGERITLTCTASSSVSSSYLHWYQQKPGSSPKLWIYSTSNLASGVPTRFSGSGSGTSFSLTISTMEAEDAATYYCHQYHRSPRTFGGGTKLEIKR | 1.22 | 5
4 | m26C7 (antibody, V domains shown) VH: QVQLQQSGAELVKPGASVKISCKASGYEFSYYWMNWVKQRPGKGLEWIGQIYPGDGDTNYNGKFKGKATLTADKSSSTAYMQLSSLTSEDSAVYFCARSHGNYMAYWGQGTSVTVSS VL: QIVLTQSPAIMSASLGERITLTCTASSSVSSSYLHWYQQKPGSSPKLWIYSTSNLASGVPTRFSGSGSGTSFSLTISTMEAEDAATYYCHQYHRSPRTFGGGTKLEIKR | 1.85 | 6.5
5 | m4D7 (antibody, V domains shown) VH: QVQLQQSGAELVKPGASVKISCKASGYEFSYYWMNWVKQRPGKGLEWIGQIYPGDGDTNYNGKFKGKATVTADKSSSTAYMQLSSLTSEDSAVYFCAKSHGNYMDYWGQGTSVTVSS VL: QIVLTQSPAIMSASLGERITLTCTASSSVSSSYLHWYQQKPGSSPKLWIYSTSNLASGVPTRFSGSGSGTSFSLTISTMEAEDAATYYCHQYHRSPRTFGGGTKLEIKR | 1.29 | 3.9

biological target: T1, human cannabinoid type 1 (CB1) receptor; assay: cell-based or functional assay; remark: another data set of the same source

Row | Binder | Ca^2+ influx assay IC50 [nM] | cAMP assay IC50 [nM]
6 | Nimacimab (BIRD ROCK BIO) (antibody, V domains shown) VH: QVQLVQSGAEVKKPGSSVKVSCKASGYEFSYYWMNWVRQAPGQGLEWMGQIYPGDGETKYAQKFQGRVTITADKSTSTAYMELSSLRSEDTAVYYCARSHGNYLPYWGQGTLVTVSS VL: EIVLTQSPATLSLSPGERATLSCRASQSVSSSYLHWYQQKPGQAPRLLIYSTSNLASGIPARFSGSGSGTDFTLTISRLEPEDFAVYYCHQYHRSPPTFGQGTKVEIK | 2.62 | 28.6
7 | h2F8 (antibody, V domains shown) VH: QVQLVQSGAEVKKPGASVKVSCKASGYEFSYYWMNWVRQAPGQGLEWMGQIYPGDGDTNYNGKFKGRVTMTRDTSTSTVYMELSSLRSEDTAVYYCARSHGNYMIYWGQGTTVTVSS VL: EIVLTQSPGTLSLSPGERATLSCIASSSVSSSYLHWYQQKPGQAPRLLIHSTSNLASGIPERFSGSGSGPDFTLTISRLKPEDFAVYYCHQYHRSPRTFGQGTKVEIKR | 2.03 | 5.9
8 | hIML1-2-OP1 (antibody, V domains shown) VH: QVQLVQSGAEVKKPGASVKVSCKASGYEFNYYWMNWVRQAPGQGLEWMGQIYPGDGDNRYNGKFKGRVTMTRDTSTSTVYMELSSLRSEDTAVYYCARTGSGRFAYWGQGTLVTVSS VL: DIQMTQSPSSLSASVGDRVTITCKASSSVSTRYLHWYQQKPGKAPKLLIYGTSNIASGVPSRFSGSGSGTDFTLTISSLQPEDVATYYCQQYTAFPLTFGQGTKVEIKR | 0.55 | 8.5
